Data set [1] deals with HeLa Kyoto. Kind of data set: solubility in G1/S (NP-40 vs SDS abundance) (log2 ratio); higher = more soluble. Particulars: cell cycle stage: G1/S.
The test system of data set [2] is HeLa Kyoto. Kind of data set: melting temperature (median over replicates), in situ; higher = more thermally stable.
Data set [3] concerns HeLa Kyoto. Kind of data set: solubility change mitosis vs G1/S (difference of NP-40 vs SDS log2 ratios) (log2 ratio difference); higher = more soluble in mitosis.
The subject of data set [4] is HeLa Kyoto. Put plainly: thermal stability score vs G1/S (z-score of summed log2 fold changes over temperatures); higher = more thermally stable than in G1/S.
Setting [5] is: cell cycle stage: early G1 (4.5 h after nocodazole release).

Here are results for 5 sequences from the supplement of paper PMC5998384.
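Throughout, for melting temperature (median over replicates), in situ: HeLa Kyoto cells synchronized by double thymidine or nocodazole block, proteins quantified by TMT10plex mass spectrometry, three independent biological replicates.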
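Throughout, for solubility change mitosis vs G1/S (difference of NP-40 vs SDS log2 ratios): synchronized HeLa Kyoto cells (double thymidine block for G1/S, nocodazole release for mitosis), protein amounts in NP-40 versus SDS lysates quantified by mass spectrometry, three biological replicates.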
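Throughout, for solubility in G1/S (NP-40 vs SDS abundance): HeLa Kyoto cells arrested at G1/S by double thymidine block, proteins quantified by TMT10plex mass spectrometry in mild NP-40 versus SDS extracts, three biological replicates.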
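Throughout, for thermal stability score vs G1/S (z-score of summed log2 fold changes over temperatures): synchronized HeLa Kyoto cells, proteins quantified by TMT10plex mass spectrometry, three biological replicates, mitosis taken 0.5 h after nocodazole release, G1/S directly after double thymidine block.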

Consider “MPTQRDSSTMSHTVAGGGSGDHSHQVRVKAYYRGDIMITHFEPSISFEGLCNEVRDMCSFDNEQLFTMKWIDEEGDPCTVSSQLELEEAFRLYELNKDSELLIHVFPCVPERPGMPCPGEDKSIYRRGARRWRKLYCANGHTFQAKRFNRRAHCAICTDRIWGLGRQGYKCINCKLLVHKKCHKLVTIECGRHSLPQEPVMPMDQSSMHSDHAQTVIPYNPSSHESLDQVGEEKEAMNTRESGKASSSLGLQDFDLLRVIGRGSYAKVLLVRLKKTDRIYAMKVVKKELVNDDEDIDWVQTEKHVFEQASNHPFLVGLHSCFQTESRLFFVIEYVNGGDLMFHMQRQRKLPEEHARFYSAEISLALNYLHERGIIYRDLKLDNVLLDSEGHIKLTDYGMCKEGLRPGDTTSTFCGTPNYIAPEILRGEDYGFSVDWWALGVLMFEMMAGRSPFDIVGSSDNPDQNTEDYLFQVILEKQIRIPRSLSVKAASVLKSFLNKDPKERLGCHPQTGFADIQGHPFFRNVDWDMMEQKQVVPPFKPNISGEFGLDNFDSQFTNEPVQLTPDDDDIVRKIDQSEFEGFEYINPLLMSAEECV [PRKCI]”, for which the “solubility in G1/S (log2)” value in data set [1] was -0.127. Besides, the melting temperature in data set [2] (cell cycle stage: G1/S) was determined as 50.7 °C; in data set [2] (cell cycle stage: mitosis), 51 °C. Further, the “solubility change mitosis (log2)” value in data set [3] was -0.129. The figures for the thermal stability score in data set [4] (setting [5]) and in data set [4] (cell cycle stage: mitosis) were 0.877 and 0.84, respectively.
As to “MPTTIEREFEELDTQRRWQPLYLEIRNESHDYPHRVAKFPENRNRNRYRDVSPYDHSRVKLQNAENDYINASLVDIEEAQRSYILTQGPLPNTCCHFWLMVWQQKTKAVVMLNRIVEKESVKCAQYWPTDDQEMLFKETGFSVKLLSEDVKSYYTVHLLQLENINSGETRTISHFHYTTWPDFGVPESPASFLNFLFKVRESGSLNPDHGPAVIHCSAGIGRSGTFSLVDTCLVLMEKGDDINIKQVLLNMRKYRMGLIQTPDQLRFSYMAIIEGAKCIKGDSSIQKRWKELSKEDLSPAFDHSPNKIMTEKYNGNRIGLEEEKLTGDRCTGLSSKMQDTMEENSESALRKRIREDRKATTAQKVQQMKQRLNENERKRKRWLYWQPILTKMGFMSVILVGAFVGWTLFFQQNAL [PTPN2]”, the “solubility in G1/S (log2)” value in data set [1] was 0.0769. For the same sequence, the values for the melting temperature in data set [2] (cell cycle stage: G1/S) and in data set [2] (cell cycle stage: mitosis) were 49 °C and 49.2 °C, respectively. Also, the “solubility change mitosis (log2)” value in data set [3] was -0.142. The thermal stability score was determined as 0.409 in data set [4] (setting [5]) and 1.35 in data set [4] (cell cycle stage: mitosis).
Consider “MPVVRKIFRRRRGDSESEEDEQDSEEVRLKLEETREVQNLRKRPNGVSAVALLVGEKVQEETTLVDDPFQMKTGGMVDMKKLKERGKDKISEEEDLHLGTSFSAETNRRDEDADMMKYIETELKKRKGIVEHEEQKVKPKNAEDCLYELPENIRVSSAKKTEEMLSNQMLSGIPEVDLGIDAKIKNIISTEDAKARLLAEQQNKKKDSETSFVPTNMAVNYVQHNRFYHEELNAPIRRNKEEPKARPLRVGDTEKPEPERSPPNRKRPANEKATDDYHYEKFKKMNRRY [C9ORF78]”, for which the “solubility in G1/S (log2)” value in data set [1] stood at 0.501. Moreover, the melting temperature in data set [2] (cell cycle stage: G1/S) was determined as 57.3 °C; in data set [2] (cell cycle stage: mitosis) it was 55.1 °C. In addition, the “solubility change mitosis (log2)” value in data set [3] is 0.0516. For the same sequence, the thermal stability score was -2.13 in data set [4] (setting [5]) and -4.34 in data set [4] (cell cycle stage: mitosis).
As for “MQANGAGGGGGGGGGGGGGGGGGGGQGQTPELACLSAQNGESSPSSSSSAGDLAHANGLLPSAPSAASNNSNSLNVNNGVPGGAAAASSATVAAASATTAASSSLATPELGSSLKKKKRLSQSDEDVIRLIGQHLNGLGLNQTVDLLMQESGCRLEHPSATKFRNHVMEGDWDKAENDLNELKPLVHSPHAIVVRGALEISQTLLGIIVRMKFLLLQQKYLEYLEDGKVLEALQVLRCELTPLKYNTERIHVLSGYLMCSHAEDLRAKAEWEGKGTASRSKLLDKLQTYLPPSVMLPPRRLQTLLRQAVELQRDRCLYHNTKLDNNLDSVSLLIDHVCSRRQFPCYTQQILTEHCNEVWFCKFSNDGTKLATGSKDTTVIIWQVDPDTHLLKLLKTLEGHAYGVSYIAWSPDDNYLVACGPDDCSELWLWNVQTGELRTKMSQSHEDSLTSVAWNPDGKRFVTGGQRGQFYQCDLDGNLLDSWEGVRVQCLWCLSDGKTVLASDTHQRIRGYNFEDLTDRNIVQEDHPIMSFTISKNGRLALLNVATQGVHLWDLQDRVLVRKYQGVTQGFYTIHSCFGGHNEDFIASGSEDHKVYIWHKRSELPIAELTGHTRTVNCVSWNPQIPSMMASASDDGTVRIWGPAPFIDHQNIEEECSSMDS [WDR26]”, in data set [1], the “solubility in G1/S (log2)” value is -0.108. In addition, the melting temperature in data set [2] (cell cycle stage: G1/S) stood at 52.1 °C; in data set [2] (cell cycle stage: mitosis), 50.7 °C. Also, the “solubility change mitosis (log2)” value in data set [3] was -0.151. In addition, the thermal stability score turned out to be 0.266 in data set [4] (setting [5]) and 0.763 in data set [4] (cell cycle stage: mitosis).
“MQDGNFLLSALQPEAGVCSLALPSDLQLDRRGAEGPEAERLRAARVQEQVRARLLQLGQQPRHNGAAEPEPEAETARGTSRGQYHTLQAGFSSRSQGLSGDKTSGFRPIAKPAYSPASWSSRSAVDLSCSRRLSSAHNGGSAFGAAGYGGAQPTPPMPTRPVSFHERGGVGSRADYDTLSLRSLRLGPGGLDDRYSLVSEQLEPAATSTYRAFAYERQASSSSSRAGGLDWPEATEVSPSRTIRAPAVRTLQRFQSSHRSRGVGGAVPGAVLEPVARAPSVRSLSLSLADSGHLPDVHGFNSYGSHRTLQRLSSGFDDIDLPSAVKYLMASDPNLQVLGAAYIQHKCYSDAAAKKQARSLQAVPRLVKLFNHANQEVQRHATGAMRNLIYDNADNKLALVEENGIFELLRTLREQDDELRKNVTGILWNLSSSDHLKDRLARDTLEQLTDLVLSPLSGAGGPPLIQQNASEAEIFYNATGFLRNLSSASQATRQKMRECHGLVDALVTSINHALDAGKCEDKSVENAVCVLRNLSYRLYDEMPPSALQRLEGRGRRDLAGAPPGEVVGCFTPQSRRLRELPLAADALTFAEVSKDPKGLEWLWSPQIVGLYNRLLQRCELNRHTTEAAAGALQNITAGDRRWAGVLSRLALEQERILNPLLDRVRTADHHQLRSLTGLIRNLSRNARNKDEMSTKVVSHLIEKLPGSVGEKSPPAEVLVNIIAVLNNLVVASPIAARDLLYFDGLRKLIFIKKKRDSPDSEKSSRAASSLLANLWQYNKLHRDFRAKGYRKEDFLGP [PKP3]”: the “solubility in G1/S (log2)” value in data set [1] is -0.223. Further, the melting temperature in data set [2] (cell cycle stage: G1/S) came to 50.1 °C; in data set [2] (cell cycle stage: mitosis) it was 48.3 °C. The “solubility change mitosis (log2)” value in data set [3] came out at 0.099. For the same sequence, the figures for the thermal stability score in data set [4] (setting [5]) and in data set [4] (cell cycle stage: mitosis) were -0.69 and -0.255, respectively.
